Laboratory results taken from patent US20080311130A1 (IMMUNE DISEASE INSTITUTE, published 2008).

How the values were obtained:
[1] = target: T1, ICAM-1-Fcγ (ICAM-1 residues of 1-480 fused to the Fc of human IgG, R&D Systems) (human, UniProt P05362 28-480); test: SPR (Biacore); wild-type value from a previous study
T1 construct: range 1-480; Bought (R&D Systems); also called ICAM-1-Fcγ chimera; not shown: Fc of human IgG

[2] = target: T1, ICAM-1-Fcγ (ICAM-1 residues of 1-480 …); test: cell-based or functional assay
[3] = target: T1, ICAM-1-Fcγ (ICAM-1 residues of 1-480 …); test: SPR (Biacore 3000), I domain injected over ICAM-1-Fcγ-coupled CM5 chip, 10 mM MgCl2
Method: (§1) Mutant I domains (F265S, F292A, F292G, F265S/F292G, and HA) with residues of Asn-129 to Tyr-307 were expressed in Escherichia coli BL21 (DE3) (Novagen), refolded, and purified as described previously⁶. ICAM-1-Fcγ-coupled or mock-coupled CM5 sensor chip as control was prepared using the amine coupling kit (BIAcore, Piscataway, N.J.), as described previously³³. Surface plasmon resonance was measured using Biacore 3000. I domains were injected over the chip in 20 mM Tris HCl, pH 8.0, 150 mM NaCl, 10 mM MgCl₂, at a flow rate of 10 μl/min at room temperature.
Several of the most activating mutants were expressed in Escherichia coli and refolded in order to measure the kinetics of binding to ICAM-1 by surface plasmon resonance (FIG. 2). Data are shown in Table 2, and for comparison are shown kinetics measured for the wild-type and disulfide-bonded IA and HA mutants in a previous study⁶, and for the same disulfide-bonded HA mutant in the current study.
(§2) The values shown in the table are mean ± SD from three independent measurements. The parameters of kₒₙ, koff, and Kd were calculated by fitting the 1:1 Langmuir binding model to the Biacore sensogram. The values were from the previous studies ⁶.

[4] = target: T1, ICAM-1-Fcγ (ICAM-1 residues of 1-480 …); test: SPR (Biacore)
Method: Sensograms show the binding of the I domain mutants (F292A, F265S, F292G, and F265S/F292G) to ICAM-1-Fcγ-coated sensor chip. In all sensograms, the signals from the control surface, as described in Materials and Methods, were subtracted. I domain mutants were injected in a series of concentrations starting from 100 μM for F292A and 1 μM for F292G, F265S, and F265S/F292G, and the subsequent concentrations were by two-fold serial dilutions.
as §1, §2

T1 sequence (P05362 28-480 limits assumed, form in doubt): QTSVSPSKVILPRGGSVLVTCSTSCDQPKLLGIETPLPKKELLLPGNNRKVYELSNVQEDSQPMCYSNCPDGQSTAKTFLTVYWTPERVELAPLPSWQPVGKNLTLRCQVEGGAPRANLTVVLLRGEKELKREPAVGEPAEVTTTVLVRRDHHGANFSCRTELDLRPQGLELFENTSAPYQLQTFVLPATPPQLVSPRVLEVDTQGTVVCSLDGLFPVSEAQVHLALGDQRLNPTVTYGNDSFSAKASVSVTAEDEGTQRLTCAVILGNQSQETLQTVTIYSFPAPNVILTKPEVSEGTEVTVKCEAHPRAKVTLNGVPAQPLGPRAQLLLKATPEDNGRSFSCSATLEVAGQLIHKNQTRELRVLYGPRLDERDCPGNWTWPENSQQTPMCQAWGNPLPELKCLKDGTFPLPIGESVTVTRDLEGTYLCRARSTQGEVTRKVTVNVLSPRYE

fold increase in affinity compared to the wild-type I domain [1]: 200000 fold
IC50 in blocking the adhesion of PMA activated lymphocytes to ICAM-1 coated surfaces [2]: 350 nM
potency relative to the HA I domain in lymphocyte adhesion to ICAM-1, transmigration and homotypic aggregation [2]: 10 fold
Kd [3]: 6 nM
koff [3]: 0.00015 s⁻¹
kon [3]: 25000 M⁻¹ s⁻¹
fold decrease in dissociation rate compared to the F265S and F292G single mutants [4]: 10 fold
fold higher binding affinity than the HA mutant [4]: 20 fold
fold higher kon than the single mutants [4]: 2 fold
fold slower dissociation rate than the HA I domain [4]: ~100 fold
B1: soluble αL I domain double mutant F265S/F292G, Asn-129 to Tyr-307 (receptor)
chain: NVDLVFLFDGSMSLQPDEFQKILDFMKDVMKKLSNTSYQFAAVQFSTSYKTEFDFSDYVKWKDPDALLKHVKHMLLLTNTFGAINYVATEVFREELGARPDATKVLIIITDGEATDSGNIDAAKDIIRYIIGIGKHSQTKESQETLHKFASKPASEFVKILDTGEKLKDLFTELQKKIY
